These results are taken from patent publication US20240083953A1 (University of Washington, published 2024).

Read-outs that look alike come from different tables or passages of the source.

Assay [1] deals with DSG2 on human cells (HeLa, T84) (human) (UniProt Q14126). Put plainly: cell-based or functional assay.
Assay [2] shares this target. Put plainly: competition with 3H-labelled Ad3 virus for attachment to HeLa cells.
The target of the next assay is T1, Soluble CD46 (UniProt P15529 35-343).
T1 construct: also called sCD46
T1 sequence: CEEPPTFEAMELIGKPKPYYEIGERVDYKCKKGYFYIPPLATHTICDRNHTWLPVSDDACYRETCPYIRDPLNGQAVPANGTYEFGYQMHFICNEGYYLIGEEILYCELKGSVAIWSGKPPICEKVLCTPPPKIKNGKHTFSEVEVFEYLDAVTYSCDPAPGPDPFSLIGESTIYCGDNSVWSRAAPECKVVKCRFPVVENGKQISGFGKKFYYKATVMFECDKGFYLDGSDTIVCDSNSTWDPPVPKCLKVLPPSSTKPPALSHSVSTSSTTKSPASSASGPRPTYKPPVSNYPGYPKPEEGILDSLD
In words: Western blot, soluble CD46 as probe, anti-CD46 mAb. A general note: In western blotting, separated proteins are transferred to a membrane and probed.

For assay [3], the target named is T2, Recombinant human DSG2 protein (desmoglein 2), soluble (human, UniProt Q14126 50-609).
T2 construct: also called soluble DSG2; soluble recombinant DSG2
T2 sequence: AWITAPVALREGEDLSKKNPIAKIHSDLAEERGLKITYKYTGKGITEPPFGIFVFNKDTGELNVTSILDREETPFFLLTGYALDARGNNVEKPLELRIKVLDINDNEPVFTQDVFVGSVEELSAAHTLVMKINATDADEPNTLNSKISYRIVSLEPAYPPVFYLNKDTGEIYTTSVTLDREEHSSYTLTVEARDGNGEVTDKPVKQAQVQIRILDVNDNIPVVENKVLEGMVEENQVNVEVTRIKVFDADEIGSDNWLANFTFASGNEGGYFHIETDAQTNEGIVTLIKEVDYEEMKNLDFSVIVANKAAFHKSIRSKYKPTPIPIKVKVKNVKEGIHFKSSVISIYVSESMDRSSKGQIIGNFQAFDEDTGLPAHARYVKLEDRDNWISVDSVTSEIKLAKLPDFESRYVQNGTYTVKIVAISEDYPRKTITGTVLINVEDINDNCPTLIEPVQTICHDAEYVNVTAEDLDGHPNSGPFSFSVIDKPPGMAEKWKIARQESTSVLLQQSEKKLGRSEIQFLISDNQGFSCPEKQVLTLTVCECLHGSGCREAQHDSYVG
Put plainly: Western blot of the blotted knob protein probed with soluble human DSG2, anti-DSG2 mAb 6D8 and HRP-anti-mouse IgG.

In assay [4] the target is T3, DSG2 on human cells (HeLa, T84) (human, UniProt Q14126 50-1118).
T3 sequence: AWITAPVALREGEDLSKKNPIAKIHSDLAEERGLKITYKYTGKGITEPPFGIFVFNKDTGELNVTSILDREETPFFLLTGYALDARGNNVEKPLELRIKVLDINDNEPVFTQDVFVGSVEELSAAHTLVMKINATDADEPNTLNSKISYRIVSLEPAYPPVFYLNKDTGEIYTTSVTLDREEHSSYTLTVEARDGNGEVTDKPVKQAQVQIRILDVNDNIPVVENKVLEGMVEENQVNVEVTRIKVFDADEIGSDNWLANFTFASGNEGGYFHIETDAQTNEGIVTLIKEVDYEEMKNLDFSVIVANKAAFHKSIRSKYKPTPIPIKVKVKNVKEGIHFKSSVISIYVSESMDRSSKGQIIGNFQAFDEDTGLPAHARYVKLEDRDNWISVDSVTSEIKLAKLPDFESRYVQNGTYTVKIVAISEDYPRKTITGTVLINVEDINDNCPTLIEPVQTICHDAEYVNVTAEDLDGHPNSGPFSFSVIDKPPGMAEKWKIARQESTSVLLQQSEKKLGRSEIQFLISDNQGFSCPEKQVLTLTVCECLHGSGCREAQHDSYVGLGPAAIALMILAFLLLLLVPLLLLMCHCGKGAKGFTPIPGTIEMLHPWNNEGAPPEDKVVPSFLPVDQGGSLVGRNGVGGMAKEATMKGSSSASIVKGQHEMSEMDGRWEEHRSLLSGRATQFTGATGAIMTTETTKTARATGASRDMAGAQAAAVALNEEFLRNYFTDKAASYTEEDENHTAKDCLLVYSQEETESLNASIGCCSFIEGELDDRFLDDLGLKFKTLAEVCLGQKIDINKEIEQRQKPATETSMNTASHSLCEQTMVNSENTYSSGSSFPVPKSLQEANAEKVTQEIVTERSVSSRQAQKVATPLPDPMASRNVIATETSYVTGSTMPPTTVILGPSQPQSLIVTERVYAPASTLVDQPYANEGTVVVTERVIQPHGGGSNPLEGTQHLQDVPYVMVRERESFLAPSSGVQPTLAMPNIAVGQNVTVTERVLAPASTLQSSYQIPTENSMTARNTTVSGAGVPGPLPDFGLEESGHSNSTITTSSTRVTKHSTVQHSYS
In words: cell-based or functional assay.

Assay [5] has as its target T3, DSG2 on human cells (HeLa, T84). In words: cell-based or functional assay. This is another data set of the same source.
Assay [6] addresses T2, Recombinant human DSG2 protein …. In words: Western blot of dimeric knob, soluble DSG2 as probe.
Assay [7] addresses T3, DSG2 on human cells (HeLa, T84). Put plainly: cell-based or functional assay. This is another data set of the same source.
Assay [8] deals with T2, Recombinant human DSG2 protein …. Put plainly: SPR, DSG2 immobilised; the filing's constants were got with the knobs without dimerization domain, so the value is set on V239D/noDD. A general note: In SPR one partner is held on a chip, and binding of the other changes the refractive index at the surface.
Assay [9] shares this target. Put plainly: SPR, DSG2 immobilised; the filing's constants were got with the knobs without dimerization domain, so the value is set on Y250F/noDD.

With “Dimeric Ad3 fiber knob mutant N186D, D261N, L296R (ligand)”, the Inhibition of infection in the presence of dimeric knob (JO-1 = 100%) in [1] was 0%. Besides, in assay [2], the Inhibition of attachment in the presence of dimeric knob (JO-1 = 100%) is 18.5%.
The matching figures for “Dimeric Ad3 fiber knob mutant D261N, L296R (ligand)”: 1.5% and 20.1%.

B1: Ad3-S/Kn (ligand)
chain: SIALKNNTLWTGPKPEANCIIEYGKQNPDSKLTLILVKNGGIVNGYVTLMGASDYVNTLFKNKNVSINVELYFDATGHILPDSSSLKTDLELKYKQTADFSARGFMPSTTAYPFVLPNAGTHNENYIFGQCYYKASDGALFPLEVTVMLNKRLPDSRTSYVMTFLWSLNAGLAPETTQATLITSPFTFSYIREDD
In the case of B1, the binding result (with Soluble CD46; in assay [3]) was “no binding” in each case.

B2: JO-1 (dimeric wild-type Ad3 fiber knob) (ligand)
chain: MKVSALKEKVSALKEKVSALKEKVSALKEKVSALKEGSGGGSGGGSGGGSNSIALKNNTLWTGPKPEANCIIEYGKQNPDSKLTLILVKNGGIVNGYVTLMGASDYVNTLFKNKNVSINVELYFDATGHILPDSSSLKTDLELKYKQTADFSARGFMPSTTAYPFVLPNAGTHNENYIFGQCYYKASDGALFPLEVTVMLNKRLPDSRTSYVMTFLWSLNAGLAPETTQATLITSPFTFSYIREDD
notes: also called dimeric wt Ad3 fiber knob; dimeric wtAd3 knob
Take B2: the “IC50 (read off the curve): inhibition of Ad3-GFP infection of HeLa cells, % GFP-positive cells” value in assay [4] was roughly 5 mg/L. The “IC50 (read off the curve): inhibition of Ad3-GFP infection of HeLa cells, MFI of GFP” value in assay [5] was roughly 0.6 mg/L. The binding result with Soluble CD46 is given as “no binding”.

B3: Dimeric Ad3 fiber knob mutant N186D, D261N, L296R (ligand)
chain: MKVSALKEKVSALKEKVSALKEKVSALKEKVSALKEGSGGGSGGGSGGGSNSIALKNNTLWTGPKPEANCIIEYGKQNPDSKLTLILVKNGGIVNGYVTLMGASDYVNTLFKDKNVSINVELYFDATGHILPDSSSLKTDLELKYKQTADFSARGFMPSTTAYPFVLPNAGTHNENYIFGQCYYKASNGALFPLEVTVMLNKRLPDSRTSYVMTFLWSLNAGRAPETTQATLITSPFTFSYIREDD
notes: also called mutant with mutations in all three areas (N185, D261, L296)
On to B3, for which, in [6], the binding result is on record as “no binding”.

B4: Ad3-S6/Kn (ligand)
chain: NGVLSLKCVNPLTTASGSLQLKVGSGLTVDTTDGSLEENIKVNTPLTKSNHSINLPIGNGLQIEQNKLCSKLGNGLTFDSSNSIALKNNTLWTGPKPEANCIIEYGKQNPDSKLTLILVKNGGIVNGYVTLMGASDYVNTLFKNKNVSINVELYFDATGHILPDSSSLKTDLELKYKQTADFSARGFMPSTTAYPFVLPNAGTHNENYIFGQCYYKASDGALFPLEVTVMLNKRLPDSRTSYVMTFLWSLNAGLAPETTQATLITSPFTFSYIREDD
notes: also called Ad3 fiber knob with six shaft motifs
For the molecule B4, the binding result with Soluble CD46 is on record as “no binding”.

B5: Ad3 fiber knob mutant V239D without dimerization domain (ligand)
chain: NKLCSKLGNGLTFDSSNSIALKNNTLWTGPKPEANCIIEYGKQNPDSKLTLILVKNGGIVNGYVTLMGASDYVNTLFKNKNVSINVELYFDATGHILPDSSSLKTDLELKYKQTADFSARGFMPSTTAYPFDLPNAGTHNENYIFGQCYYKASDGALFPLEVTVMLNKRLPDSRTSYVMTFLWSLNAGLAPETTQATLITSPFTFSYIREDD
notes: range 108-319; also called V239D/noDD; not shown: N-terminal 6-His tag of pQE30 and a Gly/Ser linker coded by primer P1
By Kd is commonly meant the concentration at which binding is half-saturated. Regarding B5, in assay [7], the “IC50 (read off the curve): inhibition of Ad3-GFP infection of HeLa cells, MFI of GFP” value was roughly 4 mg/L. Also, the Kd in [8] was found to be 0.0249 µM.

B6: Ad3 fiber knob mutant Y250F without dimerization domain (ligand)
chain: NKLCSKLGNGLTFDSSNSIALKNNTLWTGPKPEANCIIEYGKQNPDSKLTLILVKNGGIVNGYVTLMGASDYVNTLFKNKNVSINVELYFDATGHILPDSSSLKTDLELKYKQTADFSARGFMPSTTAYPFVLPNAGTHNENFIFGQCYYKASDGALFPLEVTVMLNKRLPDSRTSYVMTFLWSLNAGLAPETTQATLITSPFTFSYIREDD
notes: range 108-319; also called Y250F/noDD; not shown: N-terminal 6-His tag of pQE30 and a Gly/Ser linker coded by primer P1
For the molecule B6, the Kd in assay [9] amounted to 0.0114 µM.
